Measurements taken from the nanobody polyreactivity screen of Harvey et al. (2022).

Assay: yeast display, Sf9 membrane polyspecificity reagent, FACS + sequencing; frameworks hold sequencing errors
Summary of the method: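 Synthetic nanobody libraries on Saccharomyces cerevisiae BJ5465 were galactose-induced for 36–48 hours, stained 1 hour at 4 °C with 10% biotinylated, detergent-solubilized Sf9 membrane reagent and enriched on streptavidin microbeads. FACS then separated cells into low and high (top ~1%) gates by anti-HA (expression) and streptavidin (reagent binding) fluorescence. Genes were colony-PCR amplified, MiSeq 2 × 250 sequenced and CDR-length filtered. A clone's polyreactivity label is that of its gate of origin.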

Sequence	polyreactivity (PSR sort gate)
QVQLVESGGGLVQAGGSLRLSCAASGITFTVYAMGWYRQAPGKERELVAAITSTGSTNYADSVKGRSTISRDNAKNTVYLQMNSLKPEDTAVYYCAADRQITVYAYDYWGQGTQVTVSS	low polyreactivity
QVQLVESGGGLVQAGGSLRLSCAASGITFTYYVMGWYRQAPGKERELVAAISSGGRTYYADSVKGRFTISRDNAKNTVYLEMNSLKPEDTAVYYCNADQYLRYFGRYYRSGEYWGQGTQVTVSS	high polyreactivity
QVQLVESGGGLVQAGGSLRLSCAASGITFVFYAMGWYRQAPGKERELVATISYRGTSTYYADSVKGRFTISRDNAKNTVYLQMNSLKPEDTAVYYCAADTYIYYKTGYGYWGQGTQVTVSS	low polyreactivity
QVQLVESGGGLVQAGGSLRLSCAASGITFVFYTMGWYRQAPGKERELVAAIARSGASTYYADSVKGRFTLSRDNAKNTVYLQMNSLKPEDTALYYGAADRGYRFRMDYWGQGTQVTVSS	high polyreactivity
QVQLVESGGGLVQAGGSLRLSCAASGITFVFYTMGWYRQAPGKETELVAAISRSGASTYYADSVKGRFTISRDNAKNTVYLQMNSLKPEDTAVYYCAADRGYRFRMDYWGQGTQVTVST	high polyreactivity
QVQLVESGGGLVQAGGSLRLSCAASGITFVGNAMGWYRQAPGKERELVAVISRGDSTNYADSVKGRFTISRDNAKNTVYLQMNSLKPEDTAVYYCAADGSRAGQEGNDYCGQGTQVTVSS	low polyreactivity
QVQLVESGGGLVQAGGSLRLSCAASGITFVGNARGWYRQAPGKERELVAGIRGNGGSTYYADSVKGRFTISRDNAKNTVYLQMNSLKPEDTAVYYCAAAAYYADFDYWGQGTQVTVSS	low polyreactivity
QVQLVESGGGLVQAGGSLRLSCAASGITFVHYAMGWYRQAPGKERELVAAITVGDGGTYYADSVKGRFTISRDNAKNTVYLQMNSLKPEDTAVYYCAAGFYSYSWYVKLAYGYWGQGIQVTVSS	low polyreactivity
QVQLVESGGGLVQAGGSLRLSCAASGITFVLYAMGWYRQAPGKEREFVAAITNSGGSTYYADSVKGRFTISRDNAKNTVYLQMNSLKPEDTAVYYCAATRRRYRPYEYWGQGTQVTVSS	high polyreactivity
QVQLVESGGGLVQAGGSLRLSCAASGITFVLYAMGWYRQAPGKERELVAAITWRGGSTYYADSVKGRFTISRDNAKNTVYLQMNSLKPEDTAVYYCAAVPFTSYRQGDYWGQGTQVTVSS	low polyreactivity
QVQLVESGGGLVQAGGSLRLSCAASGITFVPNAMGWYRQAPGKERELVAAINNGGSTYYADSVKGRFTISRDNAKNTVYLQMNSLKPEDTAVYYCAAVSLSTVRGYYYWGQGTQVTVSS	low polyreactivity
QVQLVESGGGLVQAGGSLRLSCAASGITFVQYAMGWYRQAPGKERELVAAITSDGRTYYADSVKGRFTISRDNAKNTVYLQMNSLKPEDTAVYYCAADVWRYTAYGGAYRRDYWGQGTQVTVSS	low polyreactivity
QVQLVESGGGLVQAGGSLRLSCAASGITFVRNAMGWYRQAPGKEREFVAAISGSGVSTYADSVKGRFTISRDNAKNTVYLQMNSLKPEDTAVYYCARDFPWSYAWYDYWGQGTQVTVSS	low polyreactivity
QVQLVESGGGLVQAGGSLRLSCAASGITFVRYAMGWYRQAPGKERELVAAIRQNGGDTYYADSVKRRFTISRDNAKNTDYLQMNSLKPEDTAVYYCNARMRGAGGYTYYYWGQGTQVTVSS	high polyreactivity
QVQLVESGGGLVQAGGSLRLSCAASGITFVRYAMGWYRQAPGKERELVAVISRGGITNYADSVKGRFTISRDNAKNTVYLQMNSLKPEDTAVYYCAVRGRSYVRTYDYWGQGTQVTVSS	high polyreactivity
QVQLVESGGGLVQAGGSLRLSCAASGITFWFYAMGWYRQAPGKERELVADITSGGSTYYADSVKGLFTISRDNAKNTVYLQMNSLKPEDTAVYYCAADSWDSLAGLWDWNGPYYYWGQGTQVTVSS	low polyreactivity
QVQLVESGGGLVQAGGSLRLSCAASGITFWSYAMGWYRQAPGKERELVAAISRGGDSTYYADSVKGRFTISRDNAKNTVYLQMNSLKPEDTAVYYCAALRKREEYYWGQGTQVTVSS	high polyreactivity
QVQLVESGGGLVQAGGSLRLSCAASGITFWYYAMGWYRQAPGKERELVAAISSSGGRTTYADSVKGRFTISRDNAKNTVYLQMNSLKPEDTAVYYCATTYGDRYVTAYDYWGQGTQVTVSS	high polyreactivity
QVQLVESGGGLVQAGGSLRLSCAASGITFYAYAIGWYRQAPGKERELVAAITSSGGNTYYADSVKGRFTISRDNAKNTVYLQMKSLKPEDTAVYYCNIRRYWWWQMGYWGQGTQVTVSS	high polyreactivity
QVQLVESGGGLVQAGGSLRLSCAASGITFYDYAMGWYRQAPGKERELVAAISGGGITYYADSVKGRFTISRDNAKNTVYLQMNSLKPEDTAVYYCAADAYGYGGDSWGQGTQVTVSS	low polyreactivity
QVQLVESGGGLVQAGGSLRLSCAASGITFYEYAMGWYRQAPGKERELVAAISTSGGNTYYADSVKGRFTISRDNAKNTVYLQMKSLKPEDTAVYYCAAQGTASSYSGGDYWGQGTQVTVSS	low polyreactivity
QVQLVESGGGLVQAGGSLRLSCAASGITFYEYAMGWYRQAPGKERELVATITSGGNTNYADSVKGRFTISRDNAKNTVYLQMNSLKPEDTAVYFCATRPYGYSCNRPYDYWGQGTQVTVSS	low polyreactivity

Sequence	polyreactivity (PSR sort gate)
QVQLVESGGGLVQAGGSLRLSCAASGITFYFNAMGWYRQAPGKERELVAAISFSGGGTYYADSVKGRFTISRDNAKNTVYLQMTSLKPEDTAVYYCNADYGRGTLRSIYDYWGQGTQVTVSS	low polyreactivity
QVQLVESGGGLVQAGGSLRLSCAASGITFYFYAMGWYRQAPGKERELVAAITRGGRTNYADSVKGRFTISRDNAKNTVYLQMNSLKPEDTAVYYCNKRLYSYYPGKYVAEYDYWGQGTQVTVSS	high polyreactivity
QVQLVESGGGLVQAGGSLRLSCAASGITFYFYTMGWYRQAPGKERELVAAISRGGGSTYYADSVKGRFTISRDNAKNTVYLQMNSLKPEDTAVYYCAADYKPHYYHDDYWGQGTQVTVSS	low polyreactivity
QVQLVESGGGLVQAGGSLRLSCAASGITFYGYAMGWYRHAPGKERELVATISSGGGTNYADSVKGRFTISRDNAKNTVYLQMNSLKPEDSAVYYCATDLSTVDYNYWGQGTQVTVSS	low polyreactivity
QVQLVESGGGLVQAGGSLRLSCAASGITFYGYAMGWYRPAPGKERELVAVITSTARTNYADSVNGRFTISRDNAKNTVYLQMNSLKPEDTAVYYCAAVHSSYSFNYWGQGTQVTVSS	high polyreactivity
QVQLVESGGGLVQAGGSLRLSCAASGITFYGYAMGWYRQAPGKERELVARISSGGTTKYADSVKGRFTISRDNAKNTVYLQMNSLKPEDTAGYYCAVGGSWWYYGFYYWGQGTQVSVSS	high polyreactivity
QVQLVESGGGLVQAGGSLRLSCAASGITFYIYAMGWYRQAPGKERELVAAITWGGDGSTRYADSVKGRFTISRDNAKNTVYLQMNSLKPEDTAVYYCAGGSTFVLFDDMDYWGQGTQVTVSS	low polyreactivity
QVQLVESGGGLVQAGGSLRLSCAASGITFYIYAMGWYRQAPGKERELVATISWSDGRTYYADSVKGRITISRDNAKNTVYLQMNSLKPEDTAVYYCAADWWYYQFDYEYWGQGTQVTVSS	low polyreactivity
QVQLVESGGGLVQAGGSLRLSCAASGITFYLNAMGWYRQAPGKERELVADITVSGGSTYYADSVKGRFTISRDTAKNTVYLQMNSLIPEDTAVYYCAADLTISYSQEYYYWGQGTQVTVSS	low polyreactivity
QVQLVESGGGLVQAGGSLRLSCAASGITFYLYAMGWYRQAPGKERELVAAISRIGGSTYYADSVKGRFTISRDNAKNTVYLQMNSLKPEDTAVYYCATYYGGSGYDYWGQGTQVTVSS	high polyreactivity
QVQLVESGGGLVQAGGSLRLSCAASGITFYLYDMGWYRQAPGIERELVASITSDGSTDYADSVKGRFTISRDNAKNTVYLQMNSLKPEDTAVYYCNARVTYSWYRFGRSGDDSWGHGTQVTVSS	low polyreactivity
QVQLVESGGGLVQAGGSLRLSCAASGITFYNSAMGLYRQAPGKERELVAAISSSGGSTYYADSVKGRFTISRDNAKNTVYLQMNSLKPEDTAVYYCAAVIVLSSEDTYYYWGQGTQVTVSS	high polyreactivity
QVQLVESGGGLVQAGGSLRLSCAASGITFYPNGMGWYRQAPGKEREFVAAITSSGGSTYYADSVKGRFRISRDNAKNTLYLQMNSLKPEDTAVYYCAAQYYPISYYGYGYWGQGTQVTVSS	low polyreactivity
QVQLVESGGGLVQAGGSLRLSCAASGITFYQYALGWYRQAPGKERELVARISYSGGSTYADSVKGRFTISRDNAKNTVYLQMNSLKPEDTAVYYCATAYRFRYGFANRYDYWGQGTQVTVSS	low polyreactivity
QVQLVESGGGLVQAGGSLRLSCAASGITFYRYAMGWYRPAPGKERELVAAISSSGGSTYYADSVKGRFTISRDNAKNSVYLQMNRLKPEDTAVYYCNAVVQNPQEYDYWGQGTQVTVSS	high polyreactivity
QVQLVESGGGLVQAGGSLRLSCAASGITFYRYAMGWYRQAPGKERELVAAISKRGGTTYYADSVKGRFTISRDNAKNTVYLQMNSLKPEDTAVYYCNKAKTAYRGQYDYWGQGTQVTVSS	high polyreactivity
QVQLVESGGGLVQAGGSLRLSCAASGITFYRYAMGWYRQAPGKERELVAAITSGGGRTYYADSVKGRFTISRDNAKNTVYLQMNSLKPEDTAVYYCNAADYTAYGQGEYWGQGTQVTVSS	high polyreactivity
QVQLVESGGGLVQAGGSLRLSCAASGITFYRYAVGWYRQAPGKERELVAAISCRGGRTYYADSVKGRFTISRDNAKKTVYLQMISLKPEDTAVDYCAAVASRIRGWLDITAYDYWGQGTQVTVSS	high polyreactivity
QVQLVESGGGLVQAGGSLRLSCAASGITFYRYMGWYRQAPGKERELVASITGRGGSTYYADSVKGRFTISRDNAKNTVYLQMNSLKPEDTAVYYCAAVFPTKSSTWYDYWGQGSQVTVSS	high polyreactivity
QVQLVESGGGLVQAGGSLRLSCAASGITFYRYVMGWYRQAPGKERELVAAISDSTGSTYYADSVKGRFTISRDNAKNTVYLQMNSLKPEDTAVYYCAAGWFYATYWRFYYWGQGTQVTVSS	low polyreactivity
QVQLVESGGGLVQAGGSLRLSCAASGITFYTYAMGWYRQAPGKERELDAAITCSGGRTYYADSVKGRFTISRDNAKNSVYLQMNSLKPEDTAVYYCAALYVYRPRTPYGYWGQGTQVNVSS	high polyreactivity
